# Experimental data reported in publication PMC8303762.
# Target: insulin-like growth factor-1 receptor (IGF-1R) on MCF-7 cells (human (endogenous in MCF-7)) (UniProt P08069)
# UniProt P08069, sequence (P08069 31-1367): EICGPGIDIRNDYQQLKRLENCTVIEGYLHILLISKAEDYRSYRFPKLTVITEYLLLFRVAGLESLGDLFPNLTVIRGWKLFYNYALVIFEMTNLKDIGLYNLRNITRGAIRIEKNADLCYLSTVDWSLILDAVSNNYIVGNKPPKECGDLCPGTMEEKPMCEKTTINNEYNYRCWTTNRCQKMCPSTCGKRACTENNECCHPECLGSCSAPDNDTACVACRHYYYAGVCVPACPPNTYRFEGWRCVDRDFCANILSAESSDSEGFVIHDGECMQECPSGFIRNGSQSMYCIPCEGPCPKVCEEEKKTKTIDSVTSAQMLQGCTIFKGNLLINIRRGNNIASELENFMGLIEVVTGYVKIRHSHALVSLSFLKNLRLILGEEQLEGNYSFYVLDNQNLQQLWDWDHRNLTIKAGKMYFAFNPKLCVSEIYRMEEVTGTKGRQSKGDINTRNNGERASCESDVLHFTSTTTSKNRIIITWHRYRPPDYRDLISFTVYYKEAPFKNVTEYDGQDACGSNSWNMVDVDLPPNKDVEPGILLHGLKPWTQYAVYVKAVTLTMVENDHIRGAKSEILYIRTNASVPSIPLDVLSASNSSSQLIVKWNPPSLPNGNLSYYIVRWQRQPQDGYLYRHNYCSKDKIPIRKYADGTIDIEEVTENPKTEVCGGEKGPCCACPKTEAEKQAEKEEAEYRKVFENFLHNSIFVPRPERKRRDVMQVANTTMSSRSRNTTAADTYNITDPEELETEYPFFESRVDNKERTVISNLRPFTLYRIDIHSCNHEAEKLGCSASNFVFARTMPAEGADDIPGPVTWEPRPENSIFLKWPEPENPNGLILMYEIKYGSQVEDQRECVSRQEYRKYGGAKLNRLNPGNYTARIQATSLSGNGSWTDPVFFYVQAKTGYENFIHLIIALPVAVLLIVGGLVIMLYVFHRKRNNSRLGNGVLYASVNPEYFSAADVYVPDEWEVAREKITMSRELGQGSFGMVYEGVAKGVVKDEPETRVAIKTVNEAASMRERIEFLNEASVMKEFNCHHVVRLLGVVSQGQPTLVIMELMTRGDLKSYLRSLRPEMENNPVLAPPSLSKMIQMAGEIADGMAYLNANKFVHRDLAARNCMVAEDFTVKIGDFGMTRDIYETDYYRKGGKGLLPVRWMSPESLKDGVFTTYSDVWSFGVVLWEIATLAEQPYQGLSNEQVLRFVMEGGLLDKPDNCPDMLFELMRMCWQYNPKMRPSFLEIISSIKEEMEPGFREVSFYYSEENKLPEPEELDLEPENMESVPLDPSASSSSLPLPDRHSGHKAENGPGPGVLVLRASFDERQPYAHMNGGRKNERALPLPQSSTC
# recombinant human vimentin, sequence (P08670 whole entry): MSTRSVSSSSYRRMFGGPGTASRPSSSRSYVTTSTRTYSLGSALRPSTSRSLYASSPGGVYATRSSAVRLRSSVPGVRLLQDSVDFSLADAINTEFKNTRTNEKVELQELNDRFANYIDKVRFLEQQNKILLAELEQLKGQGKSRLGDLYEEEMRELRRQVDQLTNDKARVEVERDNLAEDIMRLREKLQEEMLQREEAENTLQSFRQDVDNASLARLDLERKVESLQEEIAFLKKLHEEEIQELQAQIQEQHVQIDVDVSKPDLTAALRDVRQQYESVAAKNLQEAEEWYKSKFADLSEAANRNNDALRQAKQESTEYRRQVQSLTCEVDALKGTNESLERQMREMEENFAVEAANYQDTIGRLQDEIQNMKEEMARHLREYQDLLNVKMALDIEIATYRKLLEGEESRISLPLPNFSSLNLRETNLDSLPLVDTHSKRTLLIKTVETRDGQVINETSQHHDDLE
substance,measurement,value
recombinant human vimentin (from UniProt P08670 1-466) (natural protein),"MTT proliferation of MCF-7 cells treated with recombinant human vimentin (0, 50, 100, 200 ng/mL), 72 h; value printed for 100 ng/mL",> 20%
